Assay results taken from paper PMC4874178 (Biochemistry, 2015).
Like-named read-outs stand apart in the source and are kept apart here.

What was measured:
[1] = target: the molecule itself; assay: SEC
[2] = target: the molecule itself; assay: SEC; remark: listed apart in the source

Row | Protein | stoichiometry N [1] | stoichiometry N [2]
1 | Staphylococcus aureus strain Newman CstB, wild-type, full-length (enzyme, UniProt G5ELA4 1-444, looked up) MFFKQFYDNHLSQASYLVGCQRTGEAIIIDPVRDLSKYIEVADSEGLTITQATETHIHADFASGIRDVAKRLNANIYVSGEGEDALGYKNMPSKTQFVKHGDIIQVGNVKLEVLHTPGHTPESISFLLTDLGGGSSVPMGLFSGDFIFVGDIGRPDLLEKSVQIKGSTEISAKQMYESVQNIKNLPDYVQIWPGHGAGSPCGKALGAIPISTIGYEKINNWAFNEIDETKFIESLTSNQPAPPHHFAQMKQVNQFGMNLYQSYDVYPSLDNKRVAFDLRSKEAFHGGHTKGTINIPYNKNFINQIGWYLDFEKDIDLIGDKSTVEKAKHTLQLIGFDKVAGYRLPKSGISTQSVHSADMTGKEEHVLDVRNDEEWNNGHLDQAVNIPHGKLLNENIPFNKEDKIYVHCQSGVRSSIAVGILESKGFENVVNIREGYQDFPESLK | 4 | 
2 | C201S CstB, full-length (enzyme) MFFKQFYDNHLSQASYLVGCQRTGEAIIIDPVRDLSKYIEVADSEGLTITQATETHIHADFASGIRDVAKRLNANIYVSGEGEDALGYKNMPSKTQFVKHGDIIQVGNVKLEVLHTPGHTPESISFLLTDLGGGSSVPMGLFSGDFIFVGDIGRPDLLEKSVQIKGSTEISAKQMYESVQNIKNLPDYVQIWPGHGAGSPSGKALGAIPISTIGYEKINNWAFNEIDETKFIESLTSNQPAPPHHFAQMKQVNQFGMNLYQSYDVYPSLDNKRVAFDLRSKEAFHGGHTKGTINIPYNKNFINQIGWYLDFEKDIDLIGDKSTVEKAKHTLQLIGFDKVAGYRLPKSGISTQSVHSADMTGKEEHVLDVRNDEEWNNGHLDQAVNIPHGKLLNENIPFNKEDKIYVHCQSGVRSSIAVGILESKGFENVVNIREGYQDFPESLK |  | 4
3 | CstB^Rhod (isolated C-terminal rhodanese domain of CstB, residues 347-444) (domain or fragment, Staphylococcus aureus strain Newman, UniProt G5ELA4 347-444, looked up) SGISTQSVHSADMTGKEEHVLDVRNDEEWNNGHLDQAVNIPHGKLLNENIPFNKEDKIYVHCQSGVRSSIAVGILESKGFENVVNIREGYQDFPESLK |  | ~3
